Where a chain is given by its changes, count along the chain named.
B1: 558 (protein)
chain: LDNGLARTPTMGWLHWERFMCNLDCQEEPDSCISEKLFMEMAERMVSEGWKDAGYEYLCIDDCWMAPQRDSEGRLQADPQRFPHGIRQLANHVHSKGLKLGIYADVGNKTCAGFPGSFGYYDIDAQTFADWGVDLLKFDGCYCDSLENLADGYKHMSLALNRTGRSIVYSCEWPLYMWPFQKPNYTEIRQYCNHWRNFADIDDSWASIKSILDWTSRNQERIVDVAGPGGWNDPDMLVIGNFGLSWDQQVTQMALWAIMAAPLFMSNDLRHISPQAKALLQDKDVIAINQDPLGKQGYQLRKGDNFEVWERPLSGDAWAVAIINRQEIGGPRSYTIPVASLGKGVACNPACFLTQLLPVKRQLGFYNWTSRLKSHINPTGTVLLQLENTMQMSLKDLL
modifications: Synthetic Polypeptide sequence of Variant No. 558 of mature Human GLA
B2: 562 (protein)
chain: B1 chain with L353I, W368N
modifications: Synthetic Polypeptide sequence of Variant No. 562 of mature Human GLA
B3: 568 (protein)
chain: B1 chain with N348R, L353I
modifications: Synthetic Polypeptide sequence of Variant No. 568 of mature Human GLA
B4: 560 (protein)
chain: B1 chain with L353I, W368A
modifications: Synthetic Polypeptide sequence of Variant No. 560 of mature Human GLA
B5: 567 (protein)
chain: B1 chain with N348Q, L353I
modifications: Synthetic Polypeptide sequence of Variant No. 567 of mature Human GLA
B6: 564 (protein)
chain: B1 chain with L353I, W368V
modifications: Synthetic Polypeptide sequence of Variant No. 564 of mature Human GLA
B7: 566 (protein)
chain: B1 chain with N348M, L353I
modifications: Synthetic Polypeptide sequence of Variant No. 566 of mature Human GLA
B8: 569 (protein)
chain: B1 chain with N348W, L353I
modifications: Synthetic Polypeptide sequence of Variant No. 569 of mature Human GLA
B9: 561 (protein)
chain: B1 chain with L353I, W368L
modifications: Synthetic Polypeptide sequence of Variant No. 561 of mature Human GLA
B10: 563 (protein)
chain: B1 chain with L353I, W368R
modifications: Synthetic Polypeptide sequence of Variant No. 563 of mature Human GLA
B11: 559 (protein)
chain: B1 chain with L353I, L372W
modifications: Synthetic Polypeptide sequence of Variant No. 559 of mature Human GLA
B12: 565 (protein)
chain: B1 chain with N348E, L353I
modifications: Synthetic Polypeptide sequence of Variant No. 565 of mature Human GLA

Experiments:
Assay type in all cases: biochemical
[1] = HTP-analysis of yeast culture supernatants, no challenge (MUGal hydrolysis); settings: activity of the variant/activity of Rd3BB (SEQ ID NO: 13)
Outline: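 GLA variants expressed in yeast INVSc1, secreted into SD-Ura broth over 66-84 h at 30° C; clarified supernatants tested without challenge. Supernatant mixed with McIlvaine buffer pH 4.8 and 2 mM MUGal (citrate/KCl, pH 4.6), 37° C for 30-180 min, carbonate-quenched, fluorescence Ex 355/Em 448 nm.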

[2] = HTP-analysis of supernatants pretreated with acid (MUGal hydrolysis); settings: activity of the variant/activity of Rd3BB (SEQ ID NO: 13); challenge at pH 3.7
Outline: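 Supernatants from INVSc1 yeast secreting GLA variants were challenged at 37° C. for 1-3 h in McIlvaine buffer at pH 3.3-4.3. Residual activity was then measured on 4 mM MUGal substrate stock at pH 4.8 with citrate buffer pH 4.3, over 30-180 min at 37° C. Reactions were quenched with sodium carbonate and read by fluorescence (Ex 355/Em 448 nm).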

[3] = HTP-analysis of supernatants pretreated with base (MUGal hydrolysis); settings: activity of the variant/activity of Rd3BB (SEQ ID NO: 13); challenge at pH 9.7
Outline: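 GLA variants were secreted by transformed INVSc1 yeast grown 66-84 h at 30° C. Supernatants were exposed to neutral-to-basic buffers (pH 7.0-9.7) at 37° C for 1-18 h, then assayed with MUGal in acidic citrate/McIlvaine buffer, with fluorescence read after quenching.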

Molecule	Relative Activity of GLA Variants After No Challenge (NC) [1]	Relative Activity of GLA Variants After Challenge at pH 3.7 [2]	Relative Activity of GLA Variants After Challenge at pH 9.7 [3]
B1	− (− = <1.5 relative activity to Rd3BB (SEQ ID NO: 13))	− (− = <1.5 relative activity to Rd3BB (SEQ ID NO: 13))	+ (+ = 1.5 to 5 relative activity over Rd3BB (SEQ ID NO: 13))
B2	+ (+ = 1.5 to 5 relative activity over Rd3BB (SEQ ID NO: 13))	+ (+ = 1.5 to 5 relative activity over Rd3BB (SEQ ID NO: 13))	++ (++ = >5 to 10 relative activity over Rd3BB (SEQ ID NO: 13))
B3	+ (+ = 1.5 to 5 relative activity over Rd3BB (SEQ ID NO: 13))	+ (+ = 1.5 to 5 relative activity over Rd3BB (SEQ ID NO: 13))	++ (++ = >5 to 10 relative activity over Rd3BB (SEQ ID NO: 13))
B4	+ (+ = 1.5 to 5 relative activity over Rd3BB (SEQ ID NO: 13))	++ (++ = >5 to 10 relative activity over Rd3BB (SEQ ID NO: 13))	++ (++ = >5 to 10 relative activity over Rd3BB (SEQ ID NO: 13))
B5	+ (+ = 1.5 to 5 relative activity over Rd3BB (SEQ ID NO: 13))	+ (+ = 1.5 to 5 relative activity over Rd3BB (SEQ ID NO: 13))	++ (++ = >5 to 10 relative activity over Rd3BB (SEQ ID NO: 13))
B6	+ (+ = 1.5 to 5 relative activity over Rd3BB (SEQ ID NO: 13))	+ (+ = 1.5 to 5 relative activity over Rd3BB (SEQ ID NO: 13))	++ (++ = >5 to 10 relative activity over Rd3BB (SEQ ID NO: 13))
B7	+ (+ = 1.5 to 5 relative activity over Rd3BB (SEQ ID NO: 13))	+ (+ = 1.5 to 5 relative activity over Rd3BB (SEQ ID NO: 13))	++ (++ = >5 to 10 relative activity over Rd3BB (SEQ ID NO: 13))
B8	+ (+ = 1.5 to 5 relative activity over Rd3BB (SEQ ID NO: 13))	+ (+ = 1.5 to 5 relative activity over Rd3BB (SEQ ID NO: 13))	++ (++ = >5 to 10 relative activity over Rd3BB (SEQ ID NO: 13))
B9	+ (+ = 1.5 to 5 relative activity over Rd3BB (SEQ ID NO: 13))	+ (+ = 1.5 to 5 relative activity over Rd3BB (SEQ ID NO: 13))	++ (++ = >5 to 10 relative activity over Rd3BB (SEQ ID NO: 13))
B10	+ (+ = 1.5 to 5 relative activity over Rd3BB (SEQ ID NO: 13))	+ (+ = 1.5 to 5 relative activity over Rd3BB (SEQ ID NO: 13))	++ (++ = >5 to 10 relative activity over Rd3BB (SEQ ID NO: 13))
B11	+ (+ = 1.5 to 5 relative activity over Rd3BB (SEQ ID NO: 13))	+ (+ = 1.5 to 5 relative activity over Rd3BB (SEQ ID NO: 13))	++ (++ = >5 to 10 relative activity over Rd3BB (SEQ ID NO: 13))
B12	+ (+ = 1.5 to 5 relative activity over Rd3BB (SEQ ID NO: 13))	+ (+ = 1.5 to 5 relative activity over Rd3BB (SEQ ID NO: 13))	++ (++ = >5 to 10 relative activity over Rd3BB (SEQ ID NO: 13))
